Test results reported in the supplement of paper PMC12855868.

B1: library; numbered along this chain (parent)
chain: MAAAGGARLLRAASAVLGGPAGRWLHHAGSRAGSSGLLRNRGPGGSAEASRSLSVSARARSSSEDKITVHFINRDGETLTTKGKVGDSLLDVVVENNLDIDGFGACEGTLACSTCHLIFEDHIYEKLDAITDEENDMLDLAYGLTDRSRLGCQICLTKSMDNMTVRVPETVADARQSIDVGKTS

Variants of: B1
Assay: scaled log2 fold change in cell abundance, elesclomol vs control (0 = silent mean, 1 = nonsense mean) (scaled log2 ratio); higher = higher viability under elesclomol (loss of FDX1 cuproptosis function)
Settings: glucose 10 mM
[1] = with ABC1 FDX1 KO, elesclomol 5 nM, 14 days
[2] = with HEK293T FDX1 KO, elesclomol 40 nM, 11 days
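Also: variant abundance is its share of total variant reads in each endpoint sample, from next-generation sequencing of the integrated ORF PCR-amplified out of genomic DNA.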

Variant | scaled log2 fold change [1] | scaled log2 fold change [2]
MAAAGGARLLRAASAVLGGPAGRWLHHAGSRAGSSGLLRNRGPGGSAEASRSLSVSARARSSSEDKITVHFINRDGETLTTKGKVGDSLLDVVVENNLDIDGFGACEGTLACSTCHLIFEDHIYEKLDAITDEENDMLDLAYGLTDRSRLGCQICLTKSMDNMTVRVPETVADARQSIDVRKTS [G181R] | -0.0624 | 0.814
MAAAGGARLLRAASAVLGGPAGRWLHHAGSRAGSSGLLRNRGPGGSAEASRSLSVSARARSSSEDKITVHFINRDGETLTTKGKVGDSLLDVVVENNLDIDGFGACEGTLACSTCHLIFEDHIYEKLDAITDEENDMLDLAYGLTDRSRLGCQICLTKSMDNMTVRVPETVADARQSIDVVKTS [G181V] | -0.396 | 
MAAAGGARLLRAASAVLGGPAGRWLHHAGSRAGSSGLLRNRGPGGSAEASRSLSVSARARSSSEDKITVHFINRDGETLTTKGKVGDSLLDVVVENNLDIDGFGACEGTLACSTCHLIFEDHIYEKLDAITDEENDMLDLAYGLTDRSRLGCQICLTKSMDNMTVRVPETVADARQSIDVWKTS [G181W] | 0.226 | 0.364
MAAAGGARLLRAASAVLGGPAGRWLHHAGSRAGSSGLLRNRGPGGSAEASRSLSVSARARSSSEDKITVHFINRDGETLTTKGKVGDSLLDVVVENNLDIDGFGACEGTLACSTCHLIFEDHIYEKLDAITDEENDMLDLAYGLTDRSRLGCQICLTKSMDNMTVRVPETVADARQSIDVTKTS [G181T] | 0.225 | -0.186
MAAAGGARLLRAASAVLGGPAGRWLHHAGSRAGSSGLLRNRGPGGSAEASRSLSVSARARSSSEDKITVHFINRDGETLTTKGKVGDSLLDVVVENNLDIDGFGACEGTLACSTCHLIFEDHIYEKLDAITDEENDMLDLAYGLTDRSRLGCQICLTKSMDNMTVRVPETVADARQSIDVQKTS [G181Q] | -0.419 | -0.21
MAAAGGARLLRAASAVLGGPAGRWLHHAGSRAGSSGLLRNRGPGGSAEASRSLSVSARARSSSEDKITVHFINRDGETLTTKGKVGDSLLDVVVENNLDIDGFGACEGTLACSTCHLIFEDHIYEKLDAITDEENDMLDLAYGLTDRSRLGCQICLTKSMDNMTVRVPETVADARQSIDVSKTS [G181S] | 0.113 | 0.902
MAAAGGARLLRAASAVLGGPAGRWLHHAGSRAGSSGLLRNRGPGGSAEASRSLSVSARARSSSEDKITVHFINRDGETLTTKGKVGDSLLDVVVENNLDIDGFGACEGTLACSTCHLIFEDHIYEKLDAITDEENDMLDLAYGLTDRSRLGCQICLTKSMDNMTVRVPETVADARQSIDVYKTS [G181Y] | 0.093 | -0.568
MAAAGGARLLRAASAVLGGPAGRWLHHAGSRAGSSGLLRNRGPGGSAEASRSLSVSARARSSSEDKITVHFINRDGETLTTKGKVGDSLLDVVVENNLDIDGFGACEGTLACSTCHLIFEDHIYEKLDAITDEENDMLDLAYGLTDRSRLGCQICLTKSMDNMTVRVPETVADARQSIDVGFTS [K182F] | 0.103 | -0.11
MAAAGGARLLRAASAVLGGPAGRWLHHAGSRAGSSGLLRNRGPGGSAEASRSLSVSARARSSSEDKITVHFINRDGETLTTKGKVGDSLLDVVVENNLDIDGFGACEGTLACSTCHLIFEDHIYEKLDAITDEENDMLDLAYGLTDRSRLGCQICLTKSMDNMTVRVPETVADARQSIDVGCTS [K182C] | -0.0381 | -0.334
MAAAGGARLLRAASAVLGGPAGRWLHHAGSRAGSSGLLRNRGPGGSAEASRSLSVSARARSSSEDKITVHFINRDGETLTTKGKVGDSLLDVVVENNLDIDGFGACEGTLACSTCHLIFEDHIYEKLDAITDEENDMLDLAYGLTDRSRLGCQICLTKSMDNMTVRVPETVADARQSIDVGDTS [K182D] | 0.0891 | 
MAAAGGARLLRAASAVLGGPAGRWLHHAGSRAGSSGLLRNRGPGGSAEASRSLSVSARARSSSEDKITVHFINRDGETLTTKGKVGDSLLDVVVENNLDIDGFGACEGTLACSTCHLIFEDHIYEKLDAITDEENDMLDLAYGLTDRSRLGCQICLTKSMDNMTVRVPETVADARQSIDVGMTS [K182M] | -0.000782 | -0.0296
MAAAGGARLLRAASAVLGGPAGRWLHHAGSRAGSSGLLRNRGPGGSAEASRSLSVSARARSSSEDKITVHFINRDGETLTTKGKVGDSLLDVVVENNLDIDGFGACEGTLACSTCHLIFEDHIYEKLDAITDEENDMLDLAYGLTDRSRLGCQICLTKSMDNMTVRVPETVADARQSIDVGGTS [K182G] | 0.289 | 
MAAAGGARLLRAASAVLGGPAGRWLHHAGSRAGSSGLLRNRGPGGSAEASRSLSVSARARSSSEDKITVHFINRDGETLTTKGKVGDSLLDVVVENNLDIDGFGACEGTLACSTCHLIFEDHIYEKLDAITDEENDMLDLAYGLTDRSRLGCQICLTKSMDNMTVRVPETVADARQSIDVGITS [K182I] | 0.114 | 0.677
MAAAGGARLLRAASAVLGGPAGRWLHHAGSRAGSSGLLRNRGPGGSAEASRSLSVSARARSSSEDKITVHFINRDGETLTTKGKVGDSLLDVVVENNLDIDGFGACEGTLACSTCHLIFEDHIYEKLDAITDEENDMLDLAYGLTDRSRLGCQICLTKSMDNMTVRVPETVADARQSIDVGLTS [K182L] | -0.0698 | 0.171
MAAAGGARLLRAASAVLGGPAGRWLHHAGSRAGSSGLLRNRGPGGSAEASRSLSVSARARSSSEDKITVHFINRDGETLTTKGKVGDSLLDVVVENNLDIDGFGACEGTLACSTCHLIFEDHIYEKLDAITDEENDMLDLAYGLTDRSRLGCQICLTKSMDNMTVRVPETVADARQSIDVGNTS [K182N] | 0.127 | 0.75
MAAAGGARLLRAASAVLGGPAGRWLHHAGSRAGSSGLLRNRGPGGSAEASRSLSVSARARSSSEDKITVHFINRDGETLTTKGKVGDSLLDVVVENNLDIDGFGACEGTLACSTCHLIFEDHIYEKLDAITDEENDMLDLAYGLTDRSRLGCQICLTKSMDNMTVRVPETVADARQSIDVGATS [K182A] | 0.0976 | -0.691
MAAAGGARLLRAASAVLGGPAGRWLHHAGSRAGSSGLLRNRGPGGSAEASRSLSVSARARSSSEDKITVHFINRDGETLTTKGKVGDSLLDVVVENNLDIDGFGACEGTLACSTCHLIFEDHIYEKLDAITDEENDMLDLAYGLTDRSRLGCQICLTKSMDNMTVRVPETVADARQSIDVGHTS [K182H] | -0.181 | -0.354
MAAAGGARLLRAASAVLGGPAGRWLHHAGSRAGSSGLLRNRGPGGSAEASRSLSVSARARSSSEDKITVHFINRDGETLTTKGKVGDSLLDVVVENNLDIDGFGACEGTLACSTCHLIFEDHIYEKLDAITDEENDMLDLAYGLTDRSRLGCQICLTKSMDNMTVRVPETVADARQSIDVGETS [K182E] | -0.363 | -1.19
